The assay concerns the target C. elegans cofactor-independent phosphoglycerate mutase (iPGM) (C. elegans) (UniProt G5EFZ1).

For the substance Ce-2S (Ce-2 with Cys14Ser) (peptide), the IC50 of inhibition of PGM activity, enzyme-coupled bioluminescent assay worked out at 10 nM.

For the origin of these results see article PMC5382265, “Macrocycle peptides delineate locked-open inhibition mechanism for microorganism phosphoglycerate mutases” (Nature Communications, 2017).
